Test in all cases: IEDB peptide-MHC binding, purified MHC/competitive/radioactivity; ≥ and ≤ were set here for values at or beyond the usual limits of such assays
Test [1] concerns the target HLA-A*02:01.
For test [2], the target named is HLA-A*02:02.
Test [3] concerns the target HLA-A*02:03.
Test [4] deals with HLA-A*02:06.
Test [5] concerns the target HLA-A*68:02.
Setting [6] is: source organism: Vaccinia virus WR.
Setting [7] is: source organism: Influenza A virus.
The mark [8] stands for this setting: source organism: Hepacivirus hominis.

As for NVIEDITFL, the IC50 in test [1] (setting [6]) was determined as 304 nM; in test [2] (setting [6]), 146 nM; in test [3] (setting [6]), 300 nM; in test [4] (setting [6]) it was 26 nM; in test [5] (setting [6]), 31 nM.
As for NVIGLIVIL, the concentration for half-maximal inhibition (IC50) in test [1] (setting [6]) worked out at 342 nM; in test [2] (setting [6]) it was 85 nM; in test [3] (setting [6]) it was 2400 nM; in test [4] (setting [6]), 15 nM; in test [5] (setting [6]) it was 0.17 nM.
On the same counts, the results for NVISKIYTL are 147 nM, 147 nM, 97 nM, 1.7 nM and 4.6 nM.
On the same counts, the results for NVISKIYTLI are 329 nM, 0.99 nM, 33 nM, 196 nM and 67 nM.
Take NVLAWLYAA: the IC50 in test [1] (source organism: SARS-CoV1) was determined as 9.2 nM; in test [2] (source organism: SARS-CoV1) it was 7.3 nM; in test [3] (source organism: SARS-CoV1), 15 nM; in test [4] (source organism: SARS-CoV1), 1.6 nM; in test [5] (source organism: SARS-CoV1) it was 39 nM.
In the case of NVMGMIGV, the IC50 in test [1] (setting [7]) was 1460 nM; in test [2] (setting [7]), 1980 nM; in test [3] (setting [7]), 512 nM; in test [4] (setting [7]), 1250 nM; in test [5] (setting [7]), 98 nM.
As to NVSGVPHSV, the half-inhibitory concentration (IC50) in test [1] (setting [6]) was determined as 592 nM; in test [2] (setting [6]), 825 nM; in test [3] (setting [6]), 24 nM; in test [4] (setting [6]), 278 nM; in test [5] (setting [6]), 2.8 nM.
On the same counts, the results for NVSRVVECL are 4110 nM, 133 nM, 938 nM, 1030 nM and 28 nM.
The like results for PASISSVLT were, in that order, 1200 nM, 1380 nM, 1360 nM, 1490 nM and 1490 nM.
The like results for PIIYSKAGNI were, in that order, 873 nM, 654 nM, 139 nM, 728 nM and 3110 nM.
Consider PISDYSAEV, for which the IC50 in test [1] (setting [6]) worked out at 1050 nM; in test [2] (setting [6]) it was 716 nM; in test [3] (setting [6]) it was 267 nM; in test [4] (setting [6]) it was 2800 nM; in test [5] (setting [6]), 1390 nM.
On the same counts, the results for PLISILMIFI are 836 nM, 433 nM, 769 nM, 2420 nM and 915 nM.
The like results for PMSRLFMDEI were, in that order, 4020 nM, 1930 nM, 726 nM, 4370 nM and 1360 nM.
The like results for PTSETMYLTM were, in that order, 529 nM, 862 nM, 191 nM, 915 nM and 4210 nM.
QIFNIISYI: the IC50 in test [1] (setting [6]) came out at 15 nM; in test [2] (setting [6]), 111 nM; in test [3] (setting [6]), 15 nM; in test [4] (setting [6]), 1.8 nM; in test [5] (setting [6]), 6.4 nM.
As for QIFNIISYII, the IC50 in test [1] (setting [6]) was found to be 355 nM; in test [2] (setting [6]), 288 nM; in test [3] (setting [6]), 206 nM; in test [4] (setting [6]), 743 nM; in test [5] (setting [6]) it was 332 nM.
As to QIMECSRML, the IC50 in test [1] (setting [6]) is 103 nM; in test [2] (setting [6]) it was 620 nM; in test [3] (setting [6]) it was 1380 nM; in test [4] (setting [6]), 948 nM; in test [5] (setting [6]), 1400 nM.
On the same counts, the results for QLFKYVPSA are 7 nM, 12 nM, 7.8 nM, 349 nM and 1620 nM.
In the case of QLMCQPILL, the IC50 in test [1] (source organism: SARS-CoV1) is 0.96 nM; in test [2] (source organism: SARS-CoV1), 3 nM; in test [3] (source organism: SARS-CoV1) it was 12 nM; in test [4] (source organism: SARS-CoV1) it was 77 nM; in test [5] (source organism: SARS-CoV1), 140 nM.
The like results for QLMCQPILLL were, in that order, 12 nM, 92 nM, 217 nM, 325 nM and 2310 nM.
For the sequence QLMYDIINSV, the IC50 in test [1] (setting [6]) was 0.78 nM; in test [2] (setting [6]), 1.9 nM; in test [3] (setting [6]) it was 0.14 nM; in test [4] (setting [6]), 5.6 nM; in test [5] (setting [6]), 165 nM.
On the same counts, the results for QMAGVEVRYI are 6.4 nM, 0.21 nM, 0.14 nM, 45 nM and 147 nM.
For the sequence QMLSVVGFLV, the concentration for half-maximal inhibition (IC50) in test [1] (source organism: SARS-CoV1) turned out to be 7.5 nM; in test [2] (source organism: SARS-CoV1) it was 1.2 nM; in test [3] (source organism: SARS-CoV1), 6 nM; in test [4] (source organism: SARS-CoV1), 14 nM; in test [5] (source organism: SARS-CoV1) it was 206 nM.
In the case of RAAIDRQVSV, the concentration for half-maximal inhibition (IC50) in test [1] (setting [6]) is 554 nM; in test [2] (setting [6]) it was 626 nM; in test [3] (setting [6]) it was 41 nM; in test [4] (setting [6]), 212 nM; in test [5] (setting [6]), 54 nM.
Take RAFIYSIMET: the IC50 turned out to be 659 nM in test [1] (setting [6]); 81 nM in test [2] (setting [6]); 70 nM in test [3] (setting [6]); 578 nM in test [4] (setting [6]); 852 nM in test [5] (setting [6]).
On the same counts, the results for RAKRKPAMST are 785 nM, 977 nM, 1380 nM, 1550 nM and 551 nM.
For RIASILSLET, the IC50 in test [1] (setting [6]) was 985 nM; in test [2] (setting [6]) it was 583 nM; in test [3] (setting [6]), 449 nM; in test [4] (setting [6]) it was 751 nM; in test [5] (setting [6]), 442 nM.
The like results for RIITILQDI were, in that order, 146 nM, 583 nM, 5.6 nM, 2 nM and 1490 nM.
The like results for RIITILQDIV were, in that order, 526 nM, 595 nM, 209 nM, 95 nM and 290 nM.
On the same counts, the results for RIVVALSSLV are 51 nM, 48 nM, 7.2 nM, 9.6 nM and 8.5 nM.
RIYCSLFKNV: the IC50 in test [1] (setting [6]) came out at 62 nM; in test [2] (setting [6]) it was 913 nM; in test [3] (setting [6]), 30 nM; in test [4] (setting [6]), 7.1 nM; in test [5] (setting [6]), 549 nM.
As to RLLAPITAYA, the IC50 worked out at 29 nM in test [1] (setting [8]); 5.2 nM in test [2] (setting [8]); 25 nM in test [3] (setting [8]); 103 nM in test [4] (setting [8]); 94 nM in test [5] (setting [8]).
On the same counts, the results for RLLLLGLLLL are 496 nM, 1200 nM, 4250 nM, 1050 nM and 3610 nM.
Turning to RLPSETFPNV, the IC50 in test [1] (setting [6]) is 0.11 nM; in test [2] (setting [6]), 173 nM; in test [3] (setting [6]) it was 14 nM; in test [4] (setting [6]), 0.58 nM; in test [5] (setting [6]) it was 91 nM.
The like results for RLQMAGVEV were, in that order, 1450 nM, 326 nM, 531 nM, 4110 nM and 2510 nM.
The like results for RLRQDTEDI were, in that order, 219 nM, 230 nM, 387 nM, 4580 nM and 4170 nM.

These data come from the Immune Epitope Database (IEDB).
